{
  "source": "patent US20050032689A1",
  "about": "“Methods for treatment or diagnosis of disease or disorders associated with an APB domain” (New York University, priority 1994, published 2005)",
  "molecules": {"B1": {"name": "Shc 1-209: Shc amino terminus, first 209 amino acids of murine p52Shc, generated as a GST fusion protein (protein, UniProt P98083 1-209, looked up, fragment)", "chain": "MDLLPPKPKYNPLRNESLSSLEEGASGSTPPEELPSPSASSLGPILPPLPGDDSPTTLCSFFPRMSNLKLANPAGGRLGPKGEPGKAAEDGEGSAGAALRDSGLLPLLQDMNKLSGGGGRRTRVEGGQLGGEEWTRHGSFVNKPTRGWLHPNDKVMGPGVSYLVRYMGCVEVLQSMRALDFNTRTQVTREAISLVCEAVPGAKGATRRR", "modifications": "GST fusion", "notes": "Shc amino terminus, first 209 amino acids of murine p52Shc, generated as a GST fusion protein"}},
  "system": "EGF receptor mutants (Y5F, CD196)",
  "assay": "Binding of GST-Shc 1-209 to EGF receptor autophosphorylation mutants from NIH 3T3 lysates",
  "details": "all tyrosine-phosphorylated residues mutated to phenylalanine or carboxyl terminus deleted",
  "procedure": "FIG. 3. Association of GST-Shc 1-209 with mutant forms of the EGF receptor. NIH 3T3 cells overexpressing various EGF receptor mutants were stimulated with EGF (200 ng/ml) for 3 min and then lysed. Wild type EGF receptor (W.T.) contains all five known EGF receptor autophosphorylation sites, Y2F has Tyr-992 and Tyr-1068 mutated to phenylalanine, Y5F has all five known EGF receptor autophosphorylation sites mutated to phenylalanine, and CD196 has a carboxyterminal deletion of 196 amino acids deleting all known autophosphorylation sites (Li, N., et al. (1994) Oncogene (In Press). Beads containing GST-Shc 1-209 fusion protein (3 μg) were added to the various lysates containing equal amounts of the receptor (left panels) or the lysates were immunoprecipitated with the anti-EGF receptor (EGFR) antibody (mAb108) (right panels). All samples were incubated at 4° C. for 90 min. The bound proteins were then washed, subjected to SDS-PAGE and transferred to nitrocellulose. […]\nBinding Studies—GST fusion proteins were expressed using standard techniques (Ausubel, F. M., et al. Current Protocols in Molecular Biology, (1992) Wiley Interscience, New York). Protein concentration was determined by SDS-PAGE (polyacrylamide gel electrophoresis) using bovine serum albumin as a standard. […]",
  "data": [
    {"molecule": "B1", "values": [
      {"measurement": "binding to EGF receptor mutants lacking autophosphorylation sites", "result": "completely eliminated Shc 1-209 binding"}
    ]}
  ]
}
